# Substrate: Nc1ncnc2c1ncn2[C@@H]1O[C@H](CO)[C@H]2OP(=O)(O)O[C@H]21
# Experiment: phosphate release with calf intestine phosphatase, Biomol Green
# Assay type: biochemical, Sinorhizobium meliloti
# Details: 50 mM Tris-HCl pH 8, 5 mM beta-mercaptoethanol, 10 mM NaCl, 25 °C, 1 μM SpdA
protein,measurement,value
"SpdA (Sinorhizobium meliloti 1021) (protein, C-terminal His6 tag (pET-22b, NdeI-HindIII), tag kept, E. coli BL21(DE3), monomer, metal-free) MTKLIIFSDLHMVPEGETIIGLDPYRRLANGIAHVNRYHADADRVIFAGDLTHRADRASYERLKALLGELTPPAALMIGNHDRRDVFLDVFAEATTDANGFVQQVLDFADCRAILLDTLFAPPYDYPVSHAGHLCDRRLAWLDRQLEEAGGRPALIFMHHPPHISGFAGIDMIRLVNEDDFYALVKRHGNVRHIFAGHVHRTISGSSRGIPFSIFKSPVHQQPMPFDTADASLSVDEPAAYGIALVTGDGVLVHTEDYEIARRDAVGA",Km,3.7 mM
same,kcat,2 s⁻¹
